Test results as given in patent US7250269B2, “Composition for assaying glycoprotein” (Asahi Kasei Pharma Corporation, priority 2001, dated 2007).

How the values were obtained:
[1] = FOD enzyme activity / substrate specificity on glycated lysine; assay type: biochemical
Description: (§1) 164 strains of mutant colonies obtained in Example 15 were cultured for 16 hours at 30° C. in 1.5 ml of a 3.7% BHI liquid medium (manufactured by DIFCO Co.) containing 50 μg/ml of ampicillin and 1 mM of IPTG. 1 ml of the culture broth was centrifuged (15,000 G for one minute at 4° C.) to collect cells. 200 μl of 10 mM Tris-HCl buffer solution (pH 8.0) was added to the collected cells. After crushing the cells using an ultrasonic breaker, the mixture was centrifuged (14,000 G for five minutes at 4° C.) to obtain a cell extract as a supernatant.
(§2) The glycated amino acid substrate specificity of FOD-mutated recombinant contained in the cell extract prepared in Example 16 was measured using the above-mentioned FOD enzyme activity measuring method.
(§3) Synthesis of an oligonucleotide having the base sequence of 1-27 in the sequence table Sequence ID No. 7 was consigned to an outside source (BEX Co., Ltd.). The oligonucleotide was subjected to the site-directed mutagenesis using the Mutan-K kit (manufactured by Takara Shuzo Co., Ltd.) according to the manual attached to the kit. The mutant gene obtained was incorporated again into the expression plasmid pTV119N, introduced into Escherichia coli host, and cultured at 30° C. for 16 hours in a 3.7% BHI liquid medium containing 50 μg/ml of ampicillin and 1 mM of IPTG to produce mutant FOD protein.

[2] = FOD enzyme activity / substrate specificity on glycated valine; assay type: biochemical
Description: as §1, §2, §3

[3] = Isoelectric point by focusing electrophoresis; assay type: physicochemical; conditions: 700 V for 40 hours at 4° C.; carrier ampholyte
Description: The isoelectric point determined by fractionating the enzyme after applying a constant voltage of 700 V for 40 hours at 4° C. in a focusing electrophoresis using carrier ampholyte, followed by measuring the enzyme activity of each fraction, was pH 4.3±0.2.

Substrate specificity ZFL [1]: 100%
Substrate specificity FV [2]: 0%
B1: Reactive 327th amino acid Tryptophan: mutant obtained by replacing the lysine with tryptophan, named FOD-W; plasmid pcmFOD3; Sequence ID No. 2 (protein)
chain: ASTLTKQSQILIVGGGTWGCSTALHLARRGYTNVTVLDVNRIPSPISAGHDVNKLAGRLSTADSKGDDEDSIWKALSYAAAQGWLHDPVFQPFCHNTGSVVAGSTPKSIKQLVEDEIGDDIDQYTPLNTAEDFRKTMPEGILTGNFPGWKGFYKPTGSGWVHARKAMKAAFEESERLGVKFITGSPEGKVESLIFEDGDVRGAKTADGKEHRADRTILSAGASAEFFLDFENQIQPTAWTLGHIQMTPEETKLYKNLPPLFNINQGFFMEPDEDLHQLKMCDEHPGYCNWVEKPGSKYPQSIPFAKHQVPTEAERRMKQFLKDIMPQLADRPLVHARICWCADTQDRMFLITYHPRHPSLVIASGDCGTGYWHITSIGKFISDCMEGTLEERFAKFWRWRPEKFTEFWGKDPLDRFGADDKIMDLPKSDVEGWTNIKNDI
modifications: sequence derived from Fusarium oxysporum IFO- 9722
Reactivity ratio, glycated lysine / glycated valine ([1]; glycated lysine / glycated valine): 2980
Optimum temperature (maximum activity) (40 mM Tris-HCl buffer solution (pH 7.5)): 50 °C
Optimum pH (maximum activity) (100 mM buffers pH 4.4-10.3): 7.5
Isoelectric point [3]: 4.3±0.2
